Test results from article PMC7029138, “Modulation of Symbiotic Compatibility by Rhizobial Zinc Starvation Machinery”.

How the values were obtained:
Zur (His6-Zur) [1] = target: T1, Zur (His6-Zur) (Sinorhizobium fredii CCBAU45436, UniProt C3MDK7 1-131); experiment: EMSA; 200 uM ZnSO4; 2.64 uM Zur; 10 mM Tris pH 7.5, 50 mM KCl, 1 mM DTT, 1 ug poly(dI-dC), 200 uM ZnSO4, with or without 50 uM TPEN, ~50 fmol probe in 15 ul, 25 C 20 min; 5% native PAGE in TB at 4 C; conditions: protein: recombinant; tags: N-terminal His6 (pET-28a(+), BamHI/HindIII); chain copies: 2; label: 5' biotin on both strands; blunt
T1 sequence: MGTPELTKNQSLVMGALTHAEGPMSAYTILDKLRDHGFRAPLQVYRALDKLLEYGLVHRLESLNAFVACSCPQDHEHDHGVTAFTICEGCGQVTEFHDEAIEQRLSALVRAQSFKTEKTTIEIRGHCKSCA

Zur (His6-Zur) [2] = target: T1, Zur (His6-Zur); experiment: EMSA; 200 uM ZnSO4; 0.33-2.64 uM Zur, oligomeric shift above 1.32 uM; 10 mM Tris pH 7.5, 50 mM KCl, 1 mM DTT, 1 ug poly(dI-dC), 200 uM ZnSO4, with or without 50 uM TPEN, ~50 fmol probe in 15 ul, 25 C 20 min; 5% native PAGE in TB at 4 C; conditions: protein: recombinant; tags: N-terminal His6 (pET-28a(+), BamHI/HindIII); chain copies: 2; label: 5' biotin on both strands; blunt

B1: e68370 Zur box probe (dsDNA)
DNA 1: CAATCCCACGACGTAATGTTATAACATATCAGATAAGA
DNA 2: TCTTATCTGATATGTTATAACATTACGTCGTGGGATTG
binding result (Zur (His6-Zur) [1]): binds

B2: a42610 Zur box probe (dsDNA)
DNA 1: CAACATTCGCATGTTATGTTATAACATATCGCGTAATC
DNA 2: GATTACGCGATATGTTATAACATAACATGCGAATGTTG
binding result (Zur (His6-Zur) [1]): binds

B3: c06450 Zur box probe (dsDNA)
DNA 1: CAGCTCCTTATAATGTTATAACGTAACGGCACTTGATA
DNA 2: TATCAAGTGCCGTTACGTTATAACATTATAAGGAGCTG
binding result (Zur (His6-Zur) [1]): binds

B4: znuA promoter Zur box probe (dsDNA)
DNA 1: GCGACTGCGTCGTGTAATGTTATTACATCAATTGCGTTATGCTATAACGTGTGCAATAGC
DNA 2: GCTATTGCACACGTTATAGCATAACGCAATTGATGTAATAACATTACACGACGCAGTCGC
binding result (Zur (His6-Zur) [2]): binds

B5: d65890 Zur box probe (dsDNA)
DNA 1: TGATCGACGTGTGTAATGATATAACATATCGCATAAGT
DNA 2: ACTTATGCGATATGTTATATCATTACACACGTCGATCA
binding result (Zur (His6-Zur) [1]): binds
